In the NTF2 design screens of Basanta et al. (2020):

Test: protease stability score; higher = more stable; yeast display proteolysis, trypsin and chymotrypsin;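 also: relative to predicted unfolded state with 0 unfolded-like and 1 meaning tenfold more protease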

SEEEELLRRIMKRVIHEWLTGDEDSFKELADPNVRVENIVDGRNIEAVGRDEAEHVWRHFDKHLGVDHRELKEFHVFDGVIRVRMKLKIGDKEIEMHLKFIIIDGRFTRVHSHSV
protease stability score: 1.31

SEEEELLRRITDEMIESMLTGDEKYILENVDPNVRLHIGDKTYVGWETYEDHMRERLEKLGADHMKLEHKDHQGNYTLIEGNLSFNGRELEVRIKLIIVNGVLEQVEVRFD
protease stability score: 0.955

SEEEELLRRLFELFYKIWHTGDFRSLYENADPNTQLDVGDKRFHGMEVVIEALRQIWEKFGFKVELIDEHHVINGQINMDGLLDINGKKMKTHINLRLIDGVMKTIRIDIR
protease stability score: 0.049

SEEEELMKKAMNTILESLKTGDFHTLENLVDPTARSDINGVILHGRELMHHEWERLLRELGVDVWEINEIHLRYVDGVVRIDIDGKVIIGDKSRTVHLRIIAHKIDGRWHIHSISFEVR
protease stability score: 1.83

SEEEELNQKLLEEIIQILITGDWRALLELADPNVRSEVNGVELHGMETHARHLLEMLEKYPNIQVRIHHLEVQGEKIIIHGTIHFNGRDLRLTLVWHVVNGRWKEVRSELR
protease stability score: 1.35

SEEEELQRQLIEEFIRNRLTGDEDRLLELMDPNVRVRVGEKHAHGREEAIKLWHDHLHHWRIRHLTLRDYRVIDGKIHLHGEIHGEYNGKEHHTRTTIIIVHIDGRLRSIRIEID
protease stability score: 2.12

SEEEELRHELAHRWLRAFETGNFHMLLELFDPNTYFEVGDKKFHGREEVSKLLEEIWEHIRFEHVKVREVRLQGDKLHIDGETDGRVNGRDEKRKVEFEVTVINGVIHSVIIRIK
protease stability score: 2.46

SEEEELSEIASRITIEILKTGDEHMLHELADPNARLDVNGVESHGRESVVKSFRMLGVKHWTLRDVKVVDGRVWIHGELHVDGKTRRLILIVEKINGRWVMEEIRIG
protease stability score: 0.817

SEEEELSHTMWRLWVHAVRTGDFRMLEHLADPHVRDVRNINGVTTRLVGREEWRRIVEEEIDKYPNMRVEFEDVRDVGNYVHAHTKSHYDGKTVDTRVELLVVDGRISDFKLHIE
protease stability score: 1.08

SEEEELTEMVARVIVHSLLTGDEENLDHMLDPNVKIDNDIDGKEERLHGREDRRRVNEEWGWSNIHWIVRRIRTQGNKATVDGEIRFDGVTEHVRLIVILFNGKVHLVRLKHL
protease stability score: 0.77

SEEEELTQELFERFHHVLRTGDWREMVHLADPNARNIFENRTIVGREDVSKILSELLQRVKGIRWHIESIHVQGDFLKLDYRMQVGDKSENVEIHYLKFNGKWILKSIRFE
protease stability score: 1.32

SEEEELTRITEQLMIEHLRTGDWDELQHLLDPDARLHFNGREFIGREIVIKLKLEKLRDLGMTFRDFHIKSWDSQGDKIHLRVREEVEFNGKNIELDVEIIARKVDGKWFIEQIKVR
protease stability score: 1.1

SEEEELVKKATDHWKNVIKTGDEHTIKKLVDPSARIIINGQEHHGRHMIHTLIHLWGVDKIEVHLRHLHMQGDKLEIINEVRVNGQSSTLTTISTKINGVWQFEEVQLE
protease stability score: 0.902

SEEEELVREHIKRVIHSYETGDWKSFLELFDPNVRLRVGDKELHGRELFIHWLVRLIELLGINHFELILHDVELQGNKAHSDIHSNLTVGDKTEHRKVHLFNLKVNGRWRTQSEHIE
protease stability score: 1.36

SEEEELVRQWLERTTEALLTGDEEYVLHLADPRTRFDVGDKEIHGMEEFLKRHLQLRIHHMHWEVTEIRLIDGVARSTGTLEIIMQQGDKRFRVRIRSEVISEKIDGRWRLRSIKIH
protease stability score: 1.44

SEEEELWEELKELSEEWFETGDEDRLLEMADPHVKVVFNGKHEHGREALRLVLETMKRRFKNATYHPHTIELQGEKVFLKIKVRVGDKEQELEIILIIVDGRLKEIRIHIRIK
protease stability score: 2.62

SEEEELWKMVDHLVHEWLRTGDEDTFSHYADPHARSIVNGKELHGREEFSNLVHKLKEQYPNLTLTIDELRSVGDKITLHITEEFNGVRYDVRIYALKVNGKWLHRYVEVR
protease stability score: 1.54

SEEEELWRLAEETSERIIRTGDFTRLEEMIDPDARMHIDGRTHHGRETISKILLHELTRIKNVKFEIKHKSSQGDWVDIDLILRFDGKTEHIRYYVYKINGQWFLHSIEYH
protease stability score: 1.19

SEEEEMAHRVLEILLYALRTGDEKWMRKLVDPNVRLHVNGVEFHGRDEYTKFLHEHINRFDHFHSLTVTEIRHQGDFIVLHTILNIQWDGRSTRIDIHIIVLKVNGRWLLHSSSIE
protease stability score: 1.25

SEEEEMARRFTDRLLHFTQTGDERLVHEFVDPNARDDVNGREFHGWRSIHDIMRRLGIDHIRIRHIEVQGDKVRSHWQYVFNGVILEVEINTEKVDGRWLIKSVTFK
protease stability score: 1.14

SEEEEMDRHYSNLWNHLMFTGDWHWLEKLVDPHTRTIVDGQERHGREEALKVLKEVLEILGADVIRIHEMRYQGEKSNLVIEIKQGDKRLRVVIEVVVIDGVMHSLDLEIRHE
protease stability score: 0.795

SEEEEMIEKLIRLLVKAHETGDWDTEHELMDPHVRIDINGKEIIGREDWHEHVKRMGFKHSRVEIRIRHLTTQGEKIHIHGELRVIYDIDGRTIDRSTEVHYHLRKINGKWLITEIEIR
protease stability score: 1.69

SEEEEMLHHLSERMTRALRTGDWKTLFELLDPNVRYEQGDKELHGREEMVKHIRHAMERVKNIRIEFTHIDTRLIDGRIHVHIDGRDEFNGVRFKKHIIVHIDKIDGKWFTDNFRLIYE
protease stability score: 1.15

SEEEEMLKHALEILTEVTDTGNWEEYEKLLDPDVRVHIGDKTLVGMEEILRYWMEYFKSLGVDHVETRVKEISHQGDKMHMDTTLRIHQGDKDLEFHVEIHAEKVNGRWFIKEINFE
protease stability score: 1.75

SEEEEMLKIALRIMLHTIHTGDEDLFSELADPNVKIKIDGVELVGWEFAHEWMREHIEQVPNVKLKIHSVKTIDGRVDSDLIRIFDGVTHKIRLISHKINGRWLIETITVN
protease stability score: 0.964

SEEEEMNEELIKIVLHSWKTGDEKHLEENFDPNVKLIVGDKRFIGREHLVKLIDHLIKRYPGLTIHLHDVKIQGNYVHLDTRAHFDGQTYNTRSHARKVDGRWYLTHSHIE
protease stability score: 0.125

SEEEEMTRLALEIFHRVYKTGDEDKYRDLADPHVRLVVGDKTFHGREHYLKFFRHIRIHHSHLDDFEIQGDKAILDTTIDVNINGKRHWIKTHVISVKVNGQWRLHSEELS
protease stability score: 0.178

SEEEEMVKIADELIRRSWDTGDEDLFLHLADPNTRIFFNGRTVHGREEVEKMIRHMRIDHYELKRIDVYNGQVVIHGKIEITVNGVTKTHEVDIIIEKINGKWILRSIHHK
protease stability score: 1.11

SEEEEMVKRLVEIIARMLETGDEDTLLELLDPEPRIEIGDKRFHGWEEFHKEEHKRLREMRVNSTHIEDVKVYNGRARIHLRIDGSIDGRRIEMRSHFIVQKINGRWSITSVIIR
protease stability score: 1.52

SEEEEMVKVALELLKHSLETGDERLMLRQIDPHAKFDVDGKEHHGRDVFREIEERVDVLHLDHVEIQHVHIQGNKLHIHLEMRSTFLFNGRTFHYRLHYEIIMFKFNGKWLITSLQLR
protease stability score: 0.485

SEEEENAHKAMRFLEEVMKTGDEKSWLDLFDPDARIIIGDKHHIGWEHIHELMRRIDHIHDFHVHDVRSQGDKVFVDIKIDGIINGRRYRTRIEVIVRKFDGKWHIDHIQHN
protease stability score: 1.2

SEEEENARRAAEHHEHVLKTGDEDHMTRMFDPNVRVRQGDKEIHGREEFRRLFHELVRRYPNLKFELEDVDVFNGKVVVHMIFWVDGRTIEIHWFIDKFDGQWVVEEVEFR
protease stability score: 1.19

SEEEENIEHSLRIMNENLETGDEHSLAELFDPNAKIDIGDKHLHGRETLITHLVLLGIKHSSIINREYHMIGEWAHINGDLRIEIGDKERHHDVRILSRKIDGRWVVTEFHIR
protease stability score: 1.19

SEEEENILIAYRLIMHSVNTGDESSLLELIDPDYRLDVNGVDIHGREEWYRDQKERFRDAGFKHTEFRFRDLRVQGDKVFLDVEITWHVDGKTIRHRVTMIVLKVNGRWLVESFKVK
protease stability score: 1.48

SEEEENSRLLVELYFRWLVTGNEEVHNKYLDPNMRLEIRIGDKTIETHGREEILRAMREWRIRHVELKDRHVQGDKAHIEGTIIIEFDGRDIERHLNIIIVVINGRIHEIQLHVR
protease stability score: 2.79

SEEEENSRRVLELFRRIFETGDEDTSRRLADPDARVEVGEFHSIGRESFARMLHHLWRELRWKDEKIEHIEVQGDKVHVNGINFVIYNGKEINLTVHLEMQKVDGRWHIHHFKIE
protease stability score: 1.67

SEEEEQAKEAVRHFIHKWQTGDEDRLKELLDPHTKIDIGDKHIHGREEATKLIRNELHRIKNIRVELRDIEVRVYDGVIELHIRGLEKYNGQEVHVTIILIFRKINGQWIIQSEHFHID
protease stability score: 1.31

SEEEEQAKRVIDHVTRAIHTGDEDVLRRQFDPHVKIEVGDKDIHGWETMYEILTHIRIETESDVKDFKVQGDKLIMDVRLRFTIRIDGVEIHRQTTTNIIVHKVNGRWQMKKVEIR
protease stability score: 0.409

SEEEEQFKKVFEIVIRFIITGDEHSMLKNADPNARLEIGDKEVIGMENLLERLTRIIDQFKNVRIEFHVKDHDLQGDKLHLETEIVLKFDGRELRIILHIVWTKINGRWIITSLSER
protease stability score: 1.17

SEEEEQLIRMADVFLHLFLTGDEDTLRSLFDPNAKLDINGVHSVGRENVKKAKEEWENKLGVNHHRLHEIRVVNGRTDLDGEVEWDGKRQRVRLVLVLINGRIRHEKIIFE
protease stability score: 1.03

SEEEEQSRIAIELVKEVHDTGDEHLLKRLMDPNAKVDIGDKTHHGREIFSHLVHRWFHTLGVDHVKIHDLDFQGDFMIIHMVEVIGDKHVHVHIYTLKVNGRWYIRHLRVERR
protease stability score: 0.967

SEEEEQSRKIFRLLYKVIETGDEDIFTKLFDPHARLIYNGKEYIGWEEAVQVLRHIRIDREELSVVRINNVNGQVHIHSVSRMDGEINGVEHHTRVELNFIVIKINGRWVIHTWEIRID
protease stability score: 2.35

SEEEEQVERAIKLTEELIDTGNWKEISKLADPNARLNVNGREFHGREMVSENIKRFFEELGVDHIEVKHIRIQGNKVEVDTELRVGDKYHDLHLLFLKVNGQWLLKEVTVR
protease stability score: 1.22

SEEEEQVERFLRLWLHALRTGDEDTHERLMDPNTRIQIGNFIFHGRERALKVVHHLIRQIDHIHDFDIHDVRVQGNKVHVDVRLNTHFDGRTIVLNLHIHIHKVDGRWLFTSLSRE
protease stability score: 1.23

SEEEEQVKEFIERWITMVKTGDEDFARKMADPNVRIEIGDKILHGRENMEHYMRRVIDEWRITHIHVNDSKVYGEYIVNEVHIHVRQGDKHHTINWELHVKKVNGRWRLQNVHFG
protease stability score: 2.24

SEEEEQVKELIKWLIEVWLTGNEEFIRDLADPHVRMHIEQGDKKVDSHGRETLLKDLERYRREIRFEYIEIHDIRIYNGRAEVDGRLFGLINGQRMELNVILIFVVVDGKIREIAVHIR
protease stability score: 0.26

SEEEEQVTESFEHFFRARYTGDEHTLLRMMDPNVRVIVDGKDIHGWEEVIRYLVHIRIKRSELHDREIRVVNGRAIVHLDVHTDREVDGVRIETRIILILYAEKIDGRWVFKEVKIEVR
protease stability score: 1.29

SEEEERAEELVRLWEHDLKTGNEHLLRELMDPNTRLVVNGRHTHGREHAVNILLQFVEEWRIESVHLHRWRVIGDKIDLDIHIHGRINGVEHHIKSILVLVKINGKWLIHTIVIH
protease stability score: 1.02

SEEEERLRENLERWHRALYTGDEEHLFNLADPHARFEIIVDGRDVRIHGRENYLRWVEEFRKELGISRVHTELKSEHVINGRNDEDGLVHINGRSLRVHFHLDVVDGRTKKIHIYVR
protease stability score: 0.779

SEEEERLRRFFEEFIKWHVTGDEEHLERLMDPNAKFIVNGVESHGWENTSRHLKELRIHELNIRRVEIVNGRIHISGLAKGEFNGRHRETTVHIHIVVIDGRVKEMSIEVR
protease stability score: 2.48
